# Results: patent US20250297026A1 (PETMEDIX, published 2025)
# Target: T1, canine CD20 (canine, UniProt Q3C2E2 1-297)
# T1 chain: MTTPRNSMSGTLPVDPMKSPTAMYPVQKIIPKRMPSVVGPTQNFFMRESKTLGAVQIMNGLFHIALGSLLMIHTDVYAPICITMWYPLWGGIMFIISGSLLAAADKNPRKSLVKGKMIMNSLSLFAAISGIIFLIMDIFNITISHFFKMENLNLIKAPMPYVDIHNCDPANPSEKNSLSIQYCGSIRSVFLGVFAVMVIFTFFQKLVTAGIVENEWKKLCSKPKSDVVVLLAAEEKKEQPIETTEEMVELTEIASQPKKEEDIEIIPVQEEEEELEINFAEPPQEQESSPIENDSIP
# Assay: cell-based or functional assay
ADCC EC50,CDC EC50,Binder,ADCC Maximum killing (%),CDC Maximum killing (%)
0.18 nM,19.6 nM,"PMX072 (antibody, V domains shown) VH: EVQLVESGGDLVKPGGSLRLSCVASGFTFSRYHMSWVRQAPGKGLQWVAFINTGRSSTNYADAVAGRFTISRDNAKNTLYLQMNSLRAEDTAVYYCSTLDYWGQGTLVTVSS VL: SYVLTQLPSKNVTLKQPAHITCGGDNIGSKSVHWYQQKLGQAPVLIIYYDSSRPTGIPERFSGANSGNTATLTISGALAEDEADYYCQVWDSSANVFGGGTHLTVL",50%,91.6%
0.21 nM,11.1 nM,"PMX073 (antibody, V domains shown) VH: EVQLVESGGDLVKPGGSLRLSCVASGFTFSRYYMNWVRQAPGKGLQWVAFITSGGSSTSYGDAVKGRFTISRDNAKNTLYLQMNSLRAEDTAVYYCTSFDYWGQGTLVTVSS VL: SYVLTQLPSKNVTLKQPAHITCGGDNIGSKSVHWYQQKLGQAPVLIIYYASSRPTGIPERFSGANSGNTATLTISGALAEDEADYYCQVWDSSANVFGGGTHLTVL",48%,96.3%
0.13 nM,9.84 nM,"PMX077 (antibody, V domains shown) VH: EVQLVESGGDLVKPGGSLRLSCVASGITFSRYYMNWVRQAPGKGLQWVAYINSGGSPTTYADAVKGRFTISRDNAKNTLYLQMNSLRAEDTAVYYCTSFDYWGQGTLVTVSS VL: SYVLTQLPSKNVTLKQPAHITCGGDNIGSKSVHWYQQKLGQAPILIIYYDTSRPTGIPERFSGANSGNTATLTISGALAEDEADYYCQVWDSSANVFGGGTHLTVL",42%,98.7%

# Further lines, the binder ahead of its results:
Binder,ADCC EC50,CDC EC50,ADCC Maximum killing (%),CDC Maximum killing (%)
"PMX066 (antibody, V domains shown) VH: AVQLVESGGDLVKPGGSLRLSCVASGITFSRYHMSWVRQAPGKGLQWVAYINSGGSATSYTDAVKGRFSISRDNGKNTLYLQMNSLRVEDSAVYYCTTLDLWGQGTLVTVSS VL: SYVLTQLPSKNVTLKQPAHITCGGDNIGSKSVHWYQQKLGQAPVLIIYYDSRRPTGIPERFSGANSGNTATLTINGALAEDEADYYCQMWDSSANVFGGGTHLTVL",0.15 nM,12.1 nM,47%,98.5%
"PMX069 (antibody, V domains shown) VH: EMQLVESGGALVKPGGSLRLSCVASGFTFRRYHMSWVRQAPGQGLQWVAYIDSDGSPTSYGDSVKGRFTISRDNAKNTLFLQMNSLRVDDTAVYYCTTLDYWGRGTLVTVSS VL: SYVLTQVPSKNVTLKQPAHITCGGDNIGGKSVHWYQQKLGQAPLLIIYYDTRRPTGIPERFSGANSGNTATLTISRALAEDEADYYCQVWDSSGNVFGGGTHLTVI",0.09 nM,7.6 nM,38%,98.2%
"PMX071 (antibody, V domains shown) VH: EVHLVESGGDLVKPGGSLRLSCVASGITFNRYYMNWVRQTPGKGLQWVAYIDSGGSPTTYADAVKGRFTISRDNAKNTLYLQMNSLRAEDTAVYYCTSFDYWGQGTLVTVSS VL: SYVLTQLPSKNVTLKQPAHITCGGDNIGSKSVHWYQQKLGQAPILIIYYDTSRPTGIPERFSGANSGNTATLTISGALAEDEADYYCQVWDSSANVFGGGTHLTVL",0.15 nM,28.9 nM,41%,94.3%
"PMX067 (antibody, V domains shown) VH: EIQLVESGGDLVKPGGSLRLSCVASGFTFSRYHMSWVRQAPGKGLQWVAYINTGGSNTNYADAVKGRFTISRDNAKNTLYLQMNSLRAEDTAVYYCTTLDSWGQGTLVTVSS VL: SYVLTQLPFKNVTLKQPAHITCGGDNIGSKSVHWYQQKLGQAPVLIIYYDSRRPTGIPERFSGANSGNTATLTISGALAEDEADYYCQVWDSSVNVFGGGTHLTVL",0.13 nM,11.3 nM,50%,97.8%
